Measured values taken from FireProtDB (doi:10.1021/bi034371e).
“And” between values parts separate entries of the source, which are not always exact repeats. Equal values may be shown once.

Settings: Spinacia oleracea, pH 7, Thermal, whole UniProt chain shown
[1] = DSC, potassium phosphate 10 mM, reversible: No
[2] = DSC, potassium phosphate 10 mM, reversible: Yes, 90%
[3] = DSC, potassium phosphate 10 mM, reversible: Yes
[4] = NMR, phosphate 10 mM, reversible: No

B1: Plastocyanin, chloroplastic wild type, P00289 (protein)
chain: MATVASSAAVAVPSFTGLKASGSIKPTTAKIIPTTTAVPRLSVKASLKNVGAAVVATAAAGLLAGNAMAVEVLLGGGDGSLAFLPGDFSVASGEEIVFKNNAGFPHNVVFDEDEIPSGVDAAKISMSEEDLLNAPGETYKVTLTEKGTYKFYCSPHQGAGMVGKVTVN
[1]
  Tm: 67.8 °C and 67.2 °C
  unfolding enthalpy (van 't Hoff): 84.6 kcal/mol and 84.1 kcal/mol
[2]
  Tm: 71 °C
  unfolding enthalpy (van 't Hoff): 85.6 kcal/mol
[3]
  Tm: 71.2 °C
  unfolding enthalpy (calorimetric): 118 kcal/mol
  unfolding enthalpy (van 't Hoff): 82 kcal/mol
[4]
  Tm: 67.9 °C
  unfolding enthalpy (van 't Hoff): 115 kcal/mol
